According to US20110076272A1, “THERAPEUTIC METHODS AND COMPOSITIONS” (priority 2009, published 2011):

System: MDA-MB-435 established primary tumors
Assay: MDA-MB-435 established primary tumor xenograft model
Assay type: in vivo, mouse
Design: reduction in activated TAFs assessed by aSMA signal / reduction in VEGF signal versus vehicle-treated tumors / reduction in SDF-1/CXCL12 signal / reduction in LOXL2 signal: concentration or dose not given beside the values
Description: To provide growing tumor tissue stock for subsequent orthotopic implantation, five- to six-week-old nude mice (NCr nu/nu) were injected subcutaneously with 2×10^6 MDA-MB-435-GFP cells (Anticancer, Inc., San Diego, Calif.) on the right flank. For this purpose, cultures of MDA-MB-435-GFP cells were harvested and dissociated by trypsinization, washed three times with cold serum-containing medium, and then kept on ice until injection. Cells were injected into the subcutaneous space of the flank of the animal in a total volume of 0.1 ml, within 30 min of harvesting. The nude mice were sacrificed to harvest tumor tissue 4 to 6 weeks after tumor cell injection for surgical orthotopic implantation (SOI) of tumor fragments.
Tumor pieces (˜1 mm^3), extracted from subcutaneously-growing GFP-expressing breast tumors, were implanted by surgical orthotopic implantation (SOI) on the breast of female nude mice (NCr nu/nu). Treatments with AB0023 (anti-LOXL2 monoclonal antibody), M64 (anti-LOX monoclonal antibody) and vehicle (all via intraperitoneal injection) and with Taxotere (by intravenous injection) were initiated when the average primary tumor volume reached 75 mm^3. Mice were administered the antibodies at a dose of 30 mg/kg twice a week for 28 days and Taxotere, at 10 mg/kg, was administered once a week for 3 weeks.
Body weight and tumor size were recorded weekly. At the conclusion of the study, mice were sacrificed by cervical dislocation after being anesthetized with carbon dioxide. Primary breast tumors were imaged, harvested, cut in half symmetrically and snap-frozen for histological and immunohistochemical analyses.
The solutions used for the immunohistochemistry (IHC) protocols were obtained from Biocare Medical (Concord, Calif.) unless otherwise stated. All procedures were performed at room temperature. Slides were fixed with 4% PFA for 10 minutes and were subsequently treated with Peroxidazed-1 (Biocare Medical, Concord, Calif.) for 5 minutes. Then, the slides were background blocked with SNIPER (Biocare Medical, Concord, Calif.) for 10 minutes. Primary antibody (2-5 ug/ml final concentration) was diluted in Da Vinci Green Universal Diluent and applied to slides for 30 minutes. Slides were then rinsed in PBS-Tween-20. The Mach2 polymer kit was used for antigen detection by adding rabbit probe for 30 minutes. DAB chromagen was added to the slides for 3-5 minutes, then slides were rinsed once with deionized water. The slides were then counter-stained with hematoxylin, followed by dehydration with graded alcohol. The slides were mounted with entellan mounting medium (Electron Microscopy Sciences, Hatfield, Pa.).

[1] = antibodies 30 mg/kg i.p. twice a week
[2] = tissue-based ELISA, fibroblasts and tumor cells

B1: AB0023: mouse anti-human LOXL2 monoclonal antibody; heavy chain variable region SEQ ID NO:1, light chain variable region SEQ ID NO:2 (antibody, listed as Mus musculus, V domains shown)
VH: MEWSRVFIFLLSVTAGVHSQVQLQQSGAELVRPGTSVKVSCKASGYAFTYYLIEWVKQRPGQGLEWIGVINPGSGGTNYNEKFKGKATLTADKSSSTAYMQLSSLTSDDSAVYFCARNWMNFDYWGQGTTLTVSS
VL: MRCLAEFLGLLVLWIPGAIGDIVMTQAAPSVSVTPGESVSISCRSSKSLLHSNGNTYLYWFLQRPGQSPQFLIYRMSNLASGVPDRFSGSGSGTAFTLRISRVEAEDVGVYYCMQHLEYPYTFGGGTKLEIK
modifications: Heavy chain; Light chain
abundance of fibroblasts in tumors versus vehicle (H&E staining and other markers): less abundant overall | necrosis in tumors (H&E, TNF-α IHC): significant regions of necrosis | reduction in LOXL2 signal (IHC of tumors): 55% | reduction in SDF-1/CXCL12 signal (IHC of tumors): 80% | reduction in VEGF signal versus vehicle-treated tumors (IHC of tumors): 76% | decrease in tumor volume at week 3 [1]: 45% | decrease in tumor volume at week 5 [1]: 33% | levels of Beclin-1 (autophagy) in tumor cells (mouse, in vivo): increased | pyknosis, reduced viability of tumor cells (mouse, in vivo): pyknosis and increased cytoplasmic condensation of nuclei | levels of TGF-β1 [2]: reduced | levels of phosphorylated SMAD2 [2]: reduced | levels of connective tissue growth factor (CTGF) (tumor tissue): reduced | reduction in Sirius red staining (crosslinked collagen, desmoplasia) (tumors harvested at day 39): 61% | reduction in activated TAFs assessed by aSMA signal (tumors harvested at day 39): 88% | reduction in tumor vasculature, CD31 signal (tumors harvested at day 39): 74%
